Source: the supplement of paper PMC12338614
± gives the uncertainty stated by the source.

B1: library; numbered along this chain (parent)
chain: MEVVDPQQLGMFTEGELMSVGMDTFIHRIDSTEVIYQPRRKRAKLIGKYLMGDLLGEGSYGKVKEVLDSETLCRRAVKILKKKKLRRIPNGEANVKKEIQLLRRLRHKNVIQLVDVLYNEEKQKMYMVMEYCVCGMQEMLDSVPEKRFPVCQAHGYFCQLIDGLEYLHSQGIVHKDIKPGNLLLTTGGTLKISDLGVAEALHPFAADDTCRTSQGSPAFQPPEIANGLDTFSGFKVDIWSAGVTLYNITTGLYPFEGDNIYKLFENIGKGSYAIPGDCGPPLSDLLKGMLEYEPAKRFSIRQIRQHSWFRKKHPPAEAPVPIPPSPDTKDRWRSMTVVPYLEDLHGADEDEDLFDIEDDIIYTQDFTVPGQVPEEEASHNGQRRGLPKAVCMNGTEAAQLSTKSRAEGRAPNPARKACSASSKIRRLSACKQQ

Variants of: B1
Experiment: STK11 functional score (HeLa growth suppression), rescaled enrichment; synonymous median = 1, nonsense median = 0 (normalised score)
Details: with HeLa; variant type: missense
Method in brief: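 Codon-randomised (POPCode) libraries of codon-optimised STK11 were integrated by Bxb1 at an AAVS1 landing pad in HeLa, in three regions each transfected three times. Integrants (BFP-negative, mCherry-positive) were FACS-sorted 4–5 days after electroporation and grown about two weeks; tiled gDNA amplicons were sequenced on NextSeq (~2 million reads per tile). The functional score is the wild-type-corrected post/pre-selection log ratio, rescaled to synonymous and nonsense medians, merged over codons and replicate transfections, with bootstrapped error.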

Variant | STK11 functional score
MEVVDPQQLGMFTEGELMSVGMDTFIHRIDSTEVIYQPRRKRAKLIGKYLMGDLLGEGSYGKVKEVLDSETLCRRAVKILKKKKLRRIPNGEANVKKEIQLLRRLRHKNVIQLVDVLYNEEKQKMYMVMEYCVCGMQEMLDSVPEKRFPVCQAHGYFCQLIDGLEYLHSQGIVHKDIKPGNLLLTTGGTLKISDLGVAEALHPFAADDTCRTSQGSPAFQPPEIANGLDTFSGFKVDIWSAGVTLYNITTGLYPFEGDNIYKLFENIGKGSYAIPGDCGPPLSDLLKGMLEYEPAKRFSIRQIRQHSWFRKKHPPAEAPVPIPPSPDTKDRWRSMTVVPYLEDLHGADEDEDLFDIEDDIIYTQDFTVPGQVPEEGASHNGQRRGLPKAVCMNGTEAAQLSTKSRAEGRAPNPARKACSASSKIRRLSACKQQ [E376G] | 1.18 ± 0.25
MEVVDPQQLGMFTEGELMSVGMDTFIHRIDSTEVIYQPRRKRAKLIGKYLMGDLLGEGSYGKVKEVLDSETLCRRAVKILKKKKLRRIPNGEANVKKEIQLLRRLRHKNVIQLVDVLYNEEKQKMYMVMEYCVCGMQEMLDSVPEKRFPVCQAHGYFCQLIDGLEYLHSQGIVHKDIKPGNLLLTTGGTLKISDLGVAEALHPFAADDTCRTSQGSPAFQPPEIANGLDTFSGFKVDIWSAGVTLYNITTGLYPFEGDNIYKLFENIGKGSYAIPGDCGPPLSDLLKGMLEYEPAKRFSIRQIRQHSWFRKKHPPAEAPVPIPPSPDTKDRWRSMTVVPYLEDLHGADEDEDLFDIEDDIIYTQDFTVPGQVPEELASHNGQRRGLPKAVCMNGTEAAQLSTKSRAEGRAPNPARKACSASSKIRRLSACKQQ [E376L] | 1.42 ± 0.28
MEVVDPQQLGMFTEGELMSVGMDTFIHRIDSTEVIYQPRRKRAKLIGKYLMGDLLGEGSYGKVKEVLDSETLCRRAVKILKKKKLRRIPNGEANVKKEIQLLRRLRHKNVIQLVDVLYNEEKQKMYMVMEYCVCGMQEMLDSVPEKRFPVCQAHGYFCQLIDGLEYLHSQGIVHKDIKPGNLLLTTGGTLKISDLGVAEALHPFAADDTCRTSQGSPAFQPPEIANGLDTFSGFKVDIWSAGVTLYNITTGLYPFEGDNIYKLFENIGKGSYAIPGDCGPPLSDLLKGMLEYEPAKRFSIRQIRQHSWFRKKHPPAEAPVPIPPSPDTKDRWRSMTVVPYLEDLHGADEDEDLFDIEDDIIYTQDFTVPGQVPEEIASHNGQRRGLPKAVCMNGTEAAQLSTKSRAEGRAPNPARKACSASSKIRRLSACKQQ [E376I] | 1.54 ± 0.28
MEVVDPQQLGMFTEGELMSVGMDTFIHRIDSTEVIYQPRRKRAKLIGKYLMGDLLGEGSYGKVKEVLDSETLCRRAVKILKKKKLRRIPNGEANVKKEIQLLRRLRHKNVIQLVDVLYNEEKQKMYMVMEYCVCGMQEMLDSVPEKRFPVCQAHGYFCQLIDGLEYLHSQGIVHKDIKPGNLLLTTGGTLKISDLGVAEALHPFAADDTCRTSQGSPAFQPPEIANGLDTFSGFKVDIWSAGVTLYNITTGLYPFEGDNIYKLFENIGKGSYAIPGDCGPPLSDLLKGMLEYEPAKRFSIRQIRQHSWFRKKHPPAEAPVPIPPSPDTKDRWRSMTVVPYLEDLHGADEDEDLFDIEDDIIYTQDFTVPGQVPEEDASHNGQRRGLPKAVCMNGTEAAQLSTKSRAEGRAPNPARKACSASSKIRRLSACKQQ [E376D] | 0.267 ± 0.78
MEVVDPQQLGMFTEGELMSVGMDTFIHRIDSTEVIYQPRRKRAKLIGKYLMGDLLGEGSYGKVKEVLDSETLCRRAVKILKKKKLRRIPNGEANVKKEIQLLRRLRHKNVIQLVDVLYNEEKQKMYMVMEYCVCGMQEMLDSVPEKRFPVCQAHGYFCQLIDGLEYLHSQGIVHKDIKPGNLLLTTGGTLKISDLGVAEALHPFAADDTCRTSQGSPAFQPPEIANGLDTFSGFKVDIWSAGVTLYNITTGLYPFEGDNIYKLFENIGKGSYAIPGDCGPPLSDLLKGMLEYEPAKRFSIRQIRQHSWFRKKHPPAEAPVPIPPSPDTKDRWRSMTVVPYLEDLHGADEDEDLFDIEDDIIYTQDFTVPGQVPEEPASHNGQRRGLPKAVCMNGTEAAQLSTKSRAEGRAPNPARKACSASSKIRRLSACKQQ [E376P] | 1.31 ± 0.15
MEVVDPQQLGMFTEGELMSVGMDTFIHRIDSTEVIYQPRRKRAKLIGKYLMGDLLGEGSYGKVKEVLDSETLCRRAVKILKKKKLRRIPNGEANVKKEIQLLRRLRHKNVIQLVDVLYNEEKQKMYMVMEYCVCGMQEMLDSVPEKRFPVCQAHGYFCQLIDGLEYLHSQGIVHKDIKPGNLLLTTGGTLKISDLGVAEALHPFAADDTCRTSQGSPAFQPPEIANGLDTFSGFKVDIWSAGVTLYNITTGLYPFEGDNIYKLFENIGKGSYAIPGDCGPPLSDLLKGMLEYEPAKRFSIRQIRQHSWFRKKHPPAEAPVPIPPSPDTKDRWRSMTVVPYLEDLHGADEDEDLFDIEDDIIYTQDFTVPGQVPEEFASHNGQRRGLPKAVCMNGTEAAQLSTKSRAEGRAPNPARKACSASSKIRRLSACKQQ [E376F] | 1.35 ± 0.37
MEVVDPQQLGMFTEGELMSVGMDTFIHRIDSTEVIYQPRRKRAKLIGKYLMGDLLGEGSYGKVKEVLDSETLCRRAVKILKKKKLRRIPNGEANVKKEIQLLRRLRHKNVIQLVDVLYNEEKQKMYMVMEYCVCGMQEMLDSVPEKRFPVCQAHGYFCQLIDGLEYLHSQGIVHKDIKPGNLLLTTGGTLKISDLGVAEALHPFAADDTCRTSQGSPAFQPPEIANGLDTFSGFKVDIWSAGVTLYNITTGLYPFEGDNIYKLFENIGKGSYAIPGDCGPPLSDLLKGMLEYEPAKRFSIRQIRQHSWFRKKHPPAEAPVPIPPSPDTKDRWRSMTVVPYLEDLHGADEDEDLFDIEDDIIYTQDFTVPGQVPEECASHNGQRRGLPKAVCMNGTEAAQLSTKSRAEGRAPNPARKACSASSKIRRLSACKQQ [E376C] | 1.46 ± 0.15
